Measured values reported in patent publication US20260209383A1, “SITE-[…] […] ANTIBODY DRUG CONJUGATES” (SEAGEN INC., priority 2022, published 2026).

Legend:
HPAFII cells = experiment: In vitro cytotoxicity assay (CellTiter-Glo), HPAFII; assay type: cell-based
Method: (§1) In vitro cytotoxicity assay: The cytotoxic effect of an EC4-based ADC was measured by a cell proliferation assay employing the protocol in the Promega Corp. Technical Bulletin TB288; and Mendoza et a1., 2002, Cancer Res. 62:5485-5488), the methods of which are specifically incorporated by reference herein. Briefly, an aliquot of 40 μl of cell culture containing about 400 cells in medium was deposited in each well of a 384-well, opaque-walled plate. A 10 μL aliquot of free cytotoxic agent or ADC was added to the experimental wells and incubated for 96 hr and then incubated at room temperature for approximately 30 mins whereupon a volume of CellTiter-Glo™ reagent equal to the volume of cell culture medium present in each well was added. The contents were mixed for 2 mins on an orbital shaker to induce cell lysis and the plate was incubated at room temperature for 10 mins to stabilize the luminescence signal for recordation.
Anti-ITGB6 ADCs were tested for potency. The antibodies were engineered with the cysteine pairs disclosed above in the previous Examples. The efficacy of anti-ITGB6 EC4 ADCs were also tested against conventional anti-ITGB6 ADCs. The cells were treated with conventional or EC4 ADCs, then the remaining cells were counted to assess the cytotoxic effects of each EC4 variant compared to conventional ADCs. […]

BxPC-3 cells = experiment: In vitro cytotoxicity assay (CellTiter-Glo), BxPC-3; assay type: cell-based
Method: as §1
Anti-ITGB6 ADCs were tested for potency. The antibodies were engineered with the cysteine pairs disclosed above in the previous Examples. The efficacy of anti-ITGB6 EC4 ADCs were also tested against conventional anti-ITGB6 ADCs. The cells were treated with conventional or EC4 ADCs, then the remaining cells were counted to assess the cytotoxic effects of each EC4 variant compared to conventional ADCs. […] Cytotoxicity in BxPC-3 cells increased when the cells were treated with greater than 50 ng/mL of the positive control, conventional anti-ITGB6 ADCs (h2A2-mc-vc-MMAE). […] Both h2A2-mc-vc-MMAE and h2A2 S400C S114C-mc-vc-MMAE were cytotoxic to HPAFII cells when greater than 10 ng/mL ADC were used on the cells.

B1: h2A2-mc-vc-MMAE(4): conventional anti-ITGB6 ADC, h2A2 without engineered cysteines conjugated with mc-vc-MMAE; positive control (conjugate)
VH: QFQLVQSGAEVKKPGASVKVSCKASGYSFTDYNVNWVRQAPGQGLEWIGVINPKYGTTRYNQKFKGRATLTVDKSTSTAYMELSSLRSEDTAVYYCTRGLNAWDYWGQGTLVTVSS
VL: DIQMTQSPSSLSASVGDRVTITCGASENIYGALNWYQQKPGKAPKLLIYGATNLEDGVPSRFSGSGSGRDYTFTISSLQPEDIATYYCQNVLTTPYTFGQGTKLEIK
In the case of B1, the “% viability at top concentration” value (HPAFII cells) is reported as 35%, the x50 (HPAFII cells; 96 hr) is reported as 199 ng/mL and the “% viability at top concentration” value (BxPC-3 cells; BXPC3) is reported as 36%. For the same molecule, the x50 (BxPC-3 cells; BXPC3, 96 hr) was 251 ng/mL and the “ADC concentration above which cytotoxicity increased” value (BxPC-3 cells; BxPC-3 cells) was “greater than 50 ng/mL”.
